Laboratory results from the supplement of paper PMC10065799, “High-throughput profiling of sequence recognition by tyrosine kinases and SH2 domains using bacterial peptide display” (eLife, 2023).

Experiments:
AncSZ = test: phosphorylation enrichment, bacterial display (enrichment ratio); higher = better substrate or ligand; peptides without Tyr show the background
EPHB1 = EPHB1 (UniProt P54762); test: as above
EPHB2 = EPHB2 (UniProt P29323); test: as above
FGFR1 = FGFR1 (UniProt P11362); test: as above
FGFR3 = FGFR3 (UniProt P22607); test: as above
Fer (mouse) = test: as above
Fes = Fes (UniProt P07332); test: as above
Fyn = Fyn (UniProt P06241); test: as above
Hck = Hck (UniProt P08631); test: as above
Jak2 = Jak2 (UniProt O60674); test: as above
MERTK = MERTK (UniProt Q12866); test: as above
c-Abl (mouse) = test: as above
c-Src = test: as above
Grb2 SH2 = Grb2 SH2 (UniProt P62993); test: SH2 binding enrichment of the phosphorylated peptide, bacterial display (enrichment ratio); higher = better substrate or ligand; peptides without Tyr show the background
SHP2-C SH2 = test: as above
c-Src SH2 = test: as above
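Throughout, for SH2 binding enrichment of the phosphorylated peptide, bacterial display: peptide library displayed on the E. coli surface as eCPX fusions, selected cells deep-sequenced, score is each peptide's frequency after selection divided by its frequency in the input.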
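Throughout, for phosphorylation enrichment, bacterial display: 11-residue human phosphosite peptides and single-mutation variants displayed on the E. coli surface, counted by deep sequencing, each peptide's frequency after selection divided by its frequency in the unselected input library; frequency after pTyr selection over input frequency; kinase dosed for 20-30% of maximal phosphorylation in three min.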

Chain of Hck (P08631 whole entry, looked up): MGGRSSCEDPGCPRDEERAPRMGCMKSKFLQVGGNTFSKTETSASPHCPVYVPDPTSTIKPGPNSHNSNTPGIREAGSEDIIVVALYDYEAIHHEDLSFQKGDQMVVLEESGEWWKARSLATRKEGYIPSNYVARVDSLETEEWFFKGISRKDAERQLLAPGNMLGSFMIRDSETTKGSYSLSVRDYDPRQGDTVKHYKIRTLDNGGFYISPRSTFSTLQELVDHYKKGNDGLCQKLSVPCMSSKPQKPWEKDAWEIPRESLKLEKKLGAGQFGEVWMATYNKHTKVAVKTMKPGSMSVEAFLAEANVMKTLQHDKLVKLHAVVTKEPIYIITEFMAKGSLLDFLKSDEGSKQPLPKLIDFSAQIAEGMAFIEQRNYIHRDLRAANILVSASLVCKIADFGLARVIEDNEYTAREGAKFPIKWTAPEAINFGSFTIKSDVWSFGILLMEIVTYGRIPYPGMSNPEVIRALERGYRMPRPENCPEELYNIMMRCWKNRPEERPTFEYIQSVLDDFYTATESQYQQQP
Chain of FGFR1 (P11362 whole entry, looked up): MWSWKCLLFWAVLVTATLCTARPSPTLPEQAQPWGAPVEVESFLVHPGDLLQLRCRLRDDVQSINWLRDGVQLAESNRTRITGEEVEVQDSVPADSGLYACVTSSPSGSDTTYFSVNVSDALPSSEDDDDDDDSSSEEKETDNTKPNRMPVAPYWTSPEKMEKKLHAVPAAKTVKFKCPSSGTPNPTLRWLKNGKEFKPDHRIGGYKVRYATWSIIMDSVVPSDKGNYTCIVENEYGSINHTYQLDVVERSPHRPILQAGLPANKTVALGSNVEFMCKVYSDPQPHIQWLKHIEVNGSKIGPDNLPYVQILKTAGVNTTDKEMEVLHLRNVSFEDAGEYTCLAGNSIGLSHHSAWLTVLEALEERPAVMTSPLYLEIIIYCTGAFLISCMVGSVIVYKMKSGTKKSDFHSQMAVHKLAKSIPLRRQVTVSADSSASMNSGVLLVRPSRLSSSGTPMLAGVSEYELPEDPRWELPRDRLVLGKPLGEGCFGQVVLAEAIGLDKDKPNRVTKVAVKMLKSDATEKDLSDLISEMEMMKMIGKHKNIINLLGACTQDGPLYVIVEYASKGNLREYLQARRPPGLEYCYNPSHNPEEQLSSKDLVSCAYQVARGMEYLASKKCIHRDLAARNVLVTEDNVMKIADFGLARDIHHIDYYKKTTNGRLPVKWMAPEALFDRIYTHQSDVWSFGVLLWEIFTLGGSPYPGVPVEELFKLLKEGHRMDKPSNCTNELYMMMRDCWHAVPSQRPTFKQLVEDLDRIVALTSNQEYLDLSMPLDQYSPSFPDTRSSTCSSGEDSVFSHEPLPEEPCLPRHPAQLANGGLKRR
Chain of EPHB2 (P29323 whole entry, looked up): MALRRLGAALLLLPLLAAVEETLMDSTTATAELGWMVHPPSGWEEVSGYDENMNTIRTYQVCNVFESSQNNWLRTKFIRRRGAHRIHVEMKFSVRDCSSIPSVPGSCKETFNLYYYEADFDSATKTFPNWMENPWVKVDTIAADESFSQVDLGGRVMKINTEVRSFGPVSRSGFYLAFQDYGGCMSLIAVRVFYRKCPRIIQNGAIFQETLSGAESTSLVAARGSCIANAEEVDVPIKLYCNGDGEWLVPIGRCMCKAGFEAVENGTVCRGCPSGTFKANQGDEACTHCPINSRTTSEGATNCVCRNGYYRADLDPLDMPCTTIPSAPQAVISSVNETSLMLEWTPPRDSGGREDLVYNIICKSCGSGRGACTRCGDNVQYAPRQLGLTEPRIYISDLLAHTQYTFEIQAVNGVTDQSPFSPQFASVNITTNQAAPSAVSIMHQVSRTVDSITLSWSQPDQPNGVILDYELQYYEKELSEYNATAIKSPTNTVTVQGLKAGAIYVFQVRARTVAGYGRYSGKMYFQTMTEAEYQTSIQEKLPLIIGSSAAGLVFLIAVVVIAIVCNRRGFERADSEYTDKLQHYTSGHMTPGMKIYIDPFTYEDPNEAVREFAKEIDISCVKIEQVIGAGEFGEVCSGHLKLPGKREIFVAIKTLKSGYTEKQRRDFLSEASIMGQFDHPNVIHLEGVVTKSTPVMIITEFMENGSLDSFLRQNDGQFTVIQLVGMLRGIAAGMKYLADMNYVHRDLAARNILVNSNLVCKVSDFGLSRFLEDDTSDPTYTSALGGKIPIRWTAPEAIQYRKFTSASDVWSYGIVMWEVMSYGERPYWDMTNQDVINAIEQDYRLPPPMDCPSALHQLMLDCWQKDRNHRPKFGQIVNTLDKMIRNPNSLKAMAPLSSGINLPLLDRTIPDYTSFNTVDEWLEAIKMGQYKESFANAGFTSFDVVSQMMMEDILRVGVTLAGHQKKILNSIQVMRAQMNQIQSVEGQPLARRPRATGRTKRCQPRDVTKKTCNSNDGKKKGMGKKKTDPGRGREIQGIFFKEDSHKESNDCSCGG
Chain of Fes (P07332 whole entry, looked up): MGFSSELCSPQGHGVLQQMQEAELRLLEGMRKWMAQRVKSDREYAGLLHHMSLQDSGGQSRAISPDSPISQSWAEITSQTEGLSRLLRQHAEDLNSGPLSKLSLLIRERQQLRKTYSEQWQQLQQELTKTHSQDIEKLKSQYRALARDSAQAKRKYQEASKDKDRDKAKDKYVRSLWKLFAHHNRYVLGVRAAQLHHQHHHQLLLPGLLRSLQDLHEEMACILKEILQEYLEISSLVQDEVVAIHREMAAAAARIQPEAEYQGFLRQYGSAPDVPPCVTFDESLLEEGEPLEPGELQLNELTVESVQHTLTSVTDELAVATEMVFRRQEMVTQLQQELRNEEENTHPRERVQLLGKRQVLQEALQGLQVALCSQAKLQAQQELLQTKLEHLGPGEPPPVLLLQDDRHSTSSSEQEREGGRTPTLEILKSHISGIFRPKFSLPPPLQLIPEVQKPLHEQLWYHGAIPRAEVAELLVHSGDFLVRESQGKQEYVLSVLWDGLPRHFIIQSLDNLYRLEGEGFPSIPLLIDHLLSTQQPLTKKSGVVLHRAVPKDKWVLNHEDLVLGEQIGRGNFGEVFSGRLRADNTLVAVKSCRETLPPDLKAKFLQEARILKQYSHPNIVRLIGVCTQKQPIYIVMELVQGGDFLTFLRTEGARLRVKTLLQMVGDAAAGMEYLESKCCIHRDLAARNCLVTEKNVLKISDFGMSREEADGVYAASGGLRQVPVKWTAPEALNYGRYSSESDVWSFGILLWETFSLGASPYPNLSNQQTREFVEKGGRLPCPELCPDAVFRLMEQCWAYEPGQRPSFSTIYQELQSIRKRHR
Chain of MERTK (Q12866 whole entry, looked up): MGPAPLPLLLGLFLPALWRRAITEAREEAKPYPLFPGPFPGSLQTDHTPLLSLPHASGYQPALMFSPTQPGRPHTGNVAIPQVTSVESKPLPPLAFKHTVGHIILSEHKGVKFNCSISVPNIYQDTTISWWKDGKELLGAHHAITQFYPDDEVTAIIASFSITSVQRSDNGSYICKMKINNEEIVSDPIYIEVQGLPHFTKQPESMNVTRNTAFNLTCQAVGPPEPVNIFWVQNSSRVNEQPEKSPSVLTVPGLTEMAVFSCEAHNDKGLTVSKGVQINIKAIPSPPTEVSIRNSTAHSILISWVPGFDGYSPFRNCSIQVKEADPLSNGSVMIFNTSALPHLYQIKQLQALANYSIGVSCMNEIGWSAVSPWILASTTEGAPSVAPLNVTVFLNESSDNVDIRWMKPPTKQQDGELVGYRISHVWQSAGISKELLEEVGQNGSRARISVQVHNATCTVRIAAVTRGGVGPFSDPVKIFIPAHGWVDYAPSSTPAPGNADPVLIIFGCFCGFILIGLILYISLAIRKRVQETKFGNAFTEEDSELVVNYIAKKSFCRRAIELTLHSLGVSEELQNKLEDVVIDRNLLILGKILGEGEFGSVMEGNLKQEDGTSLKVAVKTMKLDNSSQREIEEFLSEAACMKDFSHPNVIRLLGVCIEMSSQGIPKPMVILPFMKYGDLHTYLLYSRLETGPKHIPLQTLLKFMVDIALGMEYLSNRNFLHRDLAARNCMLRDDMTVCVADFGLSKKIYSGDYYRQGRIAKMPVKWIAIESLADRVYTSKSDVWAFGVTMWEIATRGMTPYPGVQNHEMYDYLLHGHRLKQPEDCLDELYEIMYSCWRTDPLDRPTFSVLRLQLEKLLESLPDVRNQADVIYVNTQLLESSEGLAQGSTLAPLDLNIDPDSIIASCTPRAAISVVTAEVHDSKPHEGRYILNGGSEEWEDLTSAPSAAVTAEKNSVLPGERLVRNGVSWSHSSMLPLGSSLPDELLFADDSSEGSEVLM
Chain of FGFR3 (P22607 whole entry, looked up): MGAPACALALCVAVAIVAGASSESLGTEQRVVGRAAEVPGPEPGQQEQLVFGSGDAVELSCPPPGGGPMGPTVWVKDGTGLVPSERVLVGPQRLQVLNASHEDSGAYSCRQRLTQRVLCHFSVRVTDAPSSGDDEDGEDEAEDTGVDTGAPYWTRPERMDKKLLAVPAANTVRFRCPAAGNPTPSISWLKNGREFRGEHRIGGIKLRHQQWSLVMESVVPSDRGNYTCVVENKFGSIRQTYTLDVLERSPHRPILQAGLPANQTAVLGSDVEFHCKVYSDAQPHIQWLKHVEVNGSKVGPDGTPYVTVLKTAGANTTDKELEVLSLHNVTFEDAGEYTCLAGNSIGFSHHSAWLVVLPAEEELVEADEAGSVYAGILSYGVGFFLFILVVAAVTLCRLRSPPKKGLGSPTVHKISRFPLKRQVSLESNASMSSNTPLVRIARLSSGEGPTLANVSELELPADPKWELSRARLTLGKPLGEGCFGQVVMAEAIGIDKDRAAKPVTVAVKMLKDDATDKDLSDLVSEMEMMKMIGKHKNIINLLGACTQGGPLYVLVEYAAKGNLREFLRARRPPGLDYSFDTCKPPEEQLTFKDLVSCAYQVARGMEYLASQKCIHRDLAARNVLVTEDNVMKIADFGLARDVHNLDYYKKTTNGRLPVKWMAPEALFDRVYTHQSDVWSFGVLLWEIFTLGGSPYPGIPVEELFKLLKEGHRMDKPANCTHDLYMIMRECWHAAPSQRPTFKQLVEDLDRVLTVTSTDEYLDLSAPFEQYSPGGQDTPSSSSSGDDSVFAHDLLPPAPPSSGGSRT

SH2 binding enrichment (Grb2 SH2) | SH2 binding enrichment (SHP2-C SH2) | SH2 binding enrichment (c-Src SH2) | Sequence | phosphorylation enrichment (AncSZ) | phosphorylation enrichment (EPHB1) | phosphorylation enrichment (EPHB2) | phosphorylation enrichment (FGFR1) | phosphorylation enrichment (FGFR3) | phosphorylation enrichment (Fer (mouse)) | phosphorylation enrichment (Fes) | phosphorylation enrichment (Fyn) | phosphorylation enrichment (Hck) | phosphorylation enrichment (Jak2) | phosphorylation enrichment (MERTK) | phosphorylation enrichment (c-Abl (mouse)) | phosphorylation enrichment (c-Src)
0.979 | 1.01 | 0.595 | KNKKDYFDMFE [SLC26A3_Y526_YF] | 0.864 | 0.779 | 0.585 | 3.49 | 2.62 | 0.418 | 0.909 | 0.453 | 0.444 | 0.706 | 0.568 | 0.882 | 0.524
1.02 | 1.06 | 0.563 | RFMELYDLNRD [BBS2_Y648_YF] | 1.28 | 0.61 | 0.812 | 0.762 | 0.883 | 0.703 | 1.28 | 1.25 | 1.14 | 0.909 | 0.459 | 0.556 | 2.04
1.08 | 0.756 | 0.352 | LKFAIYFEARE [LAMA2_Y1258_YF] | 1.45 | 1.78 | 0.983 | 1.41 | 2.05 | 0.884 | 2.6 | 1.29 | 0.736 | 1.1 | 0.845 | 1.06 | 0.345
0.91 | 0.723 | 0.724 | VMVCAYLLHRG [PTEN_Y138_I135V] | 1.13 | 0.614 | 0.538 | 0.502 | 0.78 | 0.558 | 1.3 | 0.478 | 0.584 | 1.23 | 0.481 | 1.18 | 0.558
1.62 | 2.88 | 1.37 | KYVVVYFREID [IL17RB_Y447] | 1.61 | 0.578 | 0.545 | 0.513 | 0.867 | 0.591 | 1.66 | 0.486 | 0.499 | 1.51 | 0.471 | 1.01 | 0.626
0.946 | 0.932 | 0.545 | VDSTEYEVASQ [SLC7A7_Y7] | 1.25 | 0.632 | 0.646 | 0.544 | 0.776 | 0.598 | 1.16 | 0.499 | 0.549 | 1.04 | 0.436 | 0.825 | 0.514
0.793 | 0.642 | 0.465 | GSTLSYGRDGR [MATR3_Y158_P154S] | 0.545 | 0.339 | 0.343 | 0.389 | 0.466 | 0.374 | 0.516 | 0.353 | 0.376 | 0.452 | 0.374 | 0.392 | 0.382
0.929 | 0.597 | 0.558 | VPTSKYRGGGG [HBA1_Y141_L137P] | 0.392 | 0.284 | 0.341 | 0.392 | 0.349 | 0.327 | 0.457 | 0.452 | 0.355 | 0.572 | 0.392 | 0.446 | 0.363
0.891 | 0.833 | 0.525 | EDGRLYAVKRS [PKMYT1_Y136] | 0.753 | 0.417 | 0.496 | 0.465 | 0.633 | 0.444 | 0.856 | 0.486 | 0.612 | 0.728 | 0.433 | 0.692 | 0.485
1.07 | 0.693 | 0.664 | HEPKGYNANFC [TGFB2_Y341] | 0.808 | 0.656 | 0.719 | 0.647 | 0.596 | 0.581 | 0.92 | 0.558 | 0.553 | 0.737 | 0.559 | 0.847 | 0.595
0.901 | 0.696 | 0.769 | LFFFSYLLKNH [PTEN_Y180_V175L_YF] | 1.39 | 0.443 | 0.976 | 0.577 | 0.671 | 0.672 | 1.98 | 0.346 | 0.705 | 2.28 | 0.584 | 1.66 | 1
0.973 | 0.756 | 0.48 | LRTAVHHEILI [CREBBP_Y1450_Y1450H] | 1.09 | 1.02 | 0.487 | 0.963 | 0.812 | 0.675 | 1.39 | 0.508 | 0.643 | 1.32 | 0.535 | 1.94 | 0.701
0.943 | 0.58 | 0.841 | CENCHYPIVPL [LCK_Y25] | 0.698 | 0.63 | 0.485 | 0.542 | 0.58 | 0.588 | 0.749 | 0.463 | 0.463 | 0.643 | 0.479 | 0.567 | 0.454
1.09 | 1.05 | 0.523 | NHQFDYTFHWT [CSNK1A1_Y294_D297H_YF] | 1.49 | 1.55 | 1.3 | 3.83 | 2.26 | 5.97 | 1.08 | 0.507 | 0.47 | 1.09 | 0.573 | 0.803 | 0.996
1.09 | 1.51 | 0.861 | TFHNTYHSHMR [IL1RAPL1_Y615_Q618H] | 0.529 | 0.367 | 0.485 | 0.67 | 0.424 | 0.44 | 0.884 | 0.4 | 0.667 | 0.725 | 0.482 | 0.538 | 0.554

Sequence | SH2 binding enrichment (Grb2 SH2) | SH2 binding enrichment (SHP2-C SH2) | SH2 binding enrichment (c-Src SH2) | phosphorylation enrichment (AncSZ) | phosphorylation enrichment (EPHB1) | phosphorylation enrichment (EPHB2) | phosphorylation enrichment (FGFR1) | phosphorylation enrichment (FGFR3) | phosphorylation enrichment (Fer (mouse)) | phosphorylation enrichment (Fes) | phosphorylation enrichment (Fyn) | phosphorylation enrichment (Hck) | phosphorylation enrichment (Jak2) | phosphorylation enrichment (MERTK) | phosphorylation enrichment (c-Abl (mouse)) | phosphorylation enrichment (c-Src)
QGLMPYGQPRP [SRRT_Y798] | 0.955 | 0.653 | 0.357 | 0.853 | 0.568 | 0.513 | 0.696 | 0.527 | 0.424 | 0.863 | 0.488 | 0.563 | 0.601 | 0.596 | 0.725 | 0.883
